Data set [1] addresses FoxO1 (UniProt G3V7R4). The data set can be described thus: C/EBP-β IP, FoxO1 immunoblot. Conditions: reference: C/EBP-β-WT; sites T299.
Data set [2] addresses C/EBP-β (UniProt P21272). The data set can be described thus: co-immunoprecipitation from cardiomyocytes. Conditions: reference: FoxO1(S209A); sites S215,S218,T228,S232,S243.
The target in data set [3] is FoxO1-WT (mouse, UniProt Q9R1E0 1-652). As to the kind of experiment: pull-down; without Mst1; EMSA: 20 mM Tris-HCl pH 8.0, 40 mM KCl, 5% glycerol, 0.4 mM DTT, 0.2 mM EDTA, 2 mM MgCl2, 1 mg/ml BSA, 20 ng poly(dI-dC), on ice 15 min, 50 ng protein; pull-down (1x buffer): 10 mM HEPES pH 8, 50 mM KCl, 2.5 mM MgCl2, 1 mM EDTA, 1 mM DTT, 0.1% IGEPAL, 4 C 2 h. The following applies: protein: recombinant; tags: GST removed by PreScission (general method); label: 5' biotin on sense strand; blunt.

The results in this text go back to PMC11282193, “Mst1-mediated phosphorylation of FoxO1 and C/EBP-β stimulates cell-protective mechanisms in cardiomyocytes”.

Sequence of FoxO1-WT (Q9R1E0 whole entry): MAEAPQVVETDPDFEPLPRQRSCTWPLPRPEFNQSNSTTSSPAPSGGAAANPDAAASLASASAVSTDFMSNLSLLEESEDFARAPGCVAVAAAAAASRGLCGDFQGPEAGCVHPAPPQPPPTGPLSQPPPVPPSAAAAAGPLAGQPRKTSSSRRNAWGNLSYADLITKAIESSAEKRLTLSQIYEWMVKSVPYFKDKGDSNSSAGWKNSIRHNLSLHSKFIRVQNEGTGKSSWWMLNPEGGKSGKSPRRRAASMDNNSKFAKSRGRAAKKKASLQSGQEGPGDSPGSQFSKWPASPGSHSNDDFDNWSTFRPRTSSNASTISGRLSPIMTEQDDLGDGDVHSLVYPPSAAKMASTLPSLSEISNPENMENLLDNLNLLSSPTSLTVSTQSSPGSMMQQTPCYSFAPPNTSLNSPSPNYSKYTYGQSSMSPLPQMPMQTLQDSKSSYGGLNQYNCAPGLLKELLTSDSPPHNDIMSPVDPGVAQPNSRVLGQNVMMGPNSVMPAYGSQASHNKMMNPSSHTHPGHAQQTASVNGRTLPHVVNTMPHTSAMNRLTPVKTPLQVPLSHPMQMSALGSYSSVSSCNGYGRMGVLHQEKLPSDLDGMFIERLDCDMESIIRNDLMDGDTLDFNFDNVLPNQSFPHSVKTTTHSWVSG

In the case of “C/EBP-β (from UniProt P17676) C/EBP-β-PR (T299A)”, the “binding against the reference” value in data set [1] is on record as “weaker”.

On to “FoxO1 (from UniProt Q9R1E0) FoxO1-PR (six sites to Ala)”, for which, in data set [2], the “binding against the reference” value was “lost”.

B1: Mt-3xDBE (Biotin-FHRE-mutant) (dsDNA)
DNA 1: ACTTACCCACGAGTTACCCACGAGTTACCCACCA
DNA 2: TGGTGGGTAACTCGTGGGTAACTCGTGGGTAAGT
Consider B1, for which the binding result in data set [3] is given as “no binding”.

B2: WT-3xDBE (Biotin-FHRE-wild type) (dsDNA)
DNA 1: CCTTGTTTACGGGTTGTTTACGGGTTGTTTACCC
DNA 2: GGGTAAACAACCCGTAAACAACCCGTAAACAAGG
Turning to B2, in data set [3], the binding result is “binds”.
